Assay results from article PMC10294656.

Molecular target: human apolipoprotein-B mRNA-editing catalytic polypetide-like 3A protein (human) (UniProt P31941)
Assay: co-IP; HepaRG cells cotransfected with pLenti6.3-Apobec3A-V5 and pEYFP-Apobec3A, mock-infected or infected with HAdV wt (50 ffu/cell), harvested 24 and 48 hpi; whole-cell lysates; YFP-Apobec3A held on ChromoTek GFP-Trap agarose beads, V5-Apobec3A detected by Western blot; V5 signal normalised to input and β-actin

human apolipoprotein-B mRNA-editing catalytic polypetide-like 3A protein, P31941 1-199 (enzyme; other documents disagree on this pair), sequence (P31941 whole entry): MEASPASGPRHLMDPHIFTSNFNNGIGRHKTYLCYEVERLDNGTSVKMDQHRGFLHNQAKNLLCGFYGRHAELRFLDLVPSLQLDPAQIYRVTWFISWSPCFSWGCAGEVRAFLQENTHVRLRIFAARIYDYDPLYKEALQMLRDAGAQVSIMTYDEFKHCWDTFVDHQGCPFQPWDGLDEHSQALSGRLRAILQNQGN

fold increase of co-precipitated V5-Apobec3A at 48 h after HAdV infection against mock: 10 fold
Substance: human apolipoprotein-B mRNA-editing catalytic polypetide-like 3A protein, P31941 1-199 (enzyme; other documents disagree on this pair)
